Results published in paper PMC11935020.

Target: improved light‐induced dimerizing protein (iLID) (Avena sativa | Escherichia coli)
Assay: recruitment to the GUV membrane, fluorescence microscopy; 450 nM iLID (His tag on DGS–NTA (Ni) lipids, inner membrane) and 100 nM SspB–mCherry encapsulated in POPC GUVs with 5% DGS–NTA (Ni); external blue light for 15 min

B1: SspB Nano–mCherry (stringent starvation protein B, Nano, fused to mCherry), P0AFZ3 1-165 (natural protein)
chain: SSPKRPKLLREYYDWLVDNSFTPYLVVDATYLGVNVPVEYVKDGQIVLNLSASATGNLQLTNDFIQFNARFKGVSRELYIPMGAALAIYARENGDGVMFEPEEIYDELNI
modifications: not checked
Work on B1 yielded a ratio of mCherry intensity at the GUV membrane to luminal intensity of 3 fold.
